Measurements reported in publication PMC6128974.

Key:
DOF5.8-ZF [1] = biological target: T1, DOF5.8-ZF (Arabidopsis thaliana, UniProt Q9FGD6 24-83); assay: EMSA
T1 sequence: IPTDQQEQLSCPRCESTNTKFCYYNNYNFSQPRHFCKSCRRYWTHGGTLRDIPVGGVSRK

DOF3.4-ZF [2] = biological target: T2, DOF3.4-ZF (Arabidopsis thaliana, UniProt Q39088 22-81); assay: EMSA
T2 sequence: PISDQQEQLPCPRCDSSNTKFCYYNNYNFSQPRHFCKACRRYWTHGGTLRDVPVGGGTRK

DOF5.8-ZF [3] = biological target: T1, DOF5.8-ZF; assay: MST
DOF3.4-ZF [4] = biological target: T2, DOF3.4-ZF; assay: MST

B1: Control for double-motif probe (dsDNA)
DNA 1: AAATAATCATGCGATATTGCGAAATATATAAC
DNA 2: GTTATATATTTCGCAATATCGCATGATTATTT
binding result (DOF5.8-ZF [1]): no binding | binding result (DOF3.4-ZF [2]): no binding

B2: Double-motif probe, fluorescein (dsDNA)
DNA 1: AAATAATCATAAAGTATTAAAGTAATATATAC
DNA 2: GTATATATTACTTTAATACTTTATGATTATTT
Kd (DOF5.8-ZF [3]): 2.5 ± 1 µM | Kd (DOF3.4-ZF [4]): 2.3 ± 1 µM

B3: Control for single-motif probe (dsDNA)
DNA 1: AATCCAGCGATGTAGAGGAG
DNA 2: CTCCTCTACATCGCTGGATT
binding result (DOF5.8-ZF [1]): no binding | binding result (DOF3.4-ZF [2]): no binding
